Measured values from patent publication US20110033521A1 (RAPPAPORT FAMILY INSTITUTE FOR RESEARCH IN THE MEDICAL …, published 2011).

Target: T1, recombinant human MCP-1 (CCL2) (human, UniProt P13500 24-99)
T1 construct: Bought recombinant protein; also called RHMCP-1; monocyte chemoattractant protein-1
Test: direct ELISA (O.D. 450 nm), chemokine coated at 100 ng/ml, CCR2(E3)-IgG at 5 ug/ml; reference: other human chemokines tested
Procedure: ELISA—The binding specificity of CCR2(E3)-IgG to various commercially available human chemokines (PeproTech, Rocky Hill, N.J.) was determined by direct ELISA as follows: 96-well ELISA plates (Nunc, Roskilde, Denemark) were coated with 100 ng/ml of each chemokine, washed and blocked with 1% BSA/PBS. CCR2(E3)-IgG at a concentration 5 μg/ml was then added. HRP labeled mouse anti human Ig (Jackson, Pa.) was added as a second Antibody. Results are shown as O.D. reading at 450 nm. Anti CCL2 monoclonal antibody (MAB679; R&D Systems, Minneapolis, […].) was used as a positive control (1 μg/ml).

T1 sequence (P13500 24-99 limits assumed): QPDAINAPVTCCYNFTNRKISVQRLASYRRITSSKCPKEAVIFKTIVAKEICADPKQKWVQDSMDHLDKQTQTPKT

B1: CCR2(E3)-IgG fusion protein (Fc fusion)
chain: GLSNCESTSQLDQATQVTET
notes: also called Ig-E3; CCR2-IgG; not shown: constant region (Hinge-CH2-CH3) of human IgG1 heavy chain, ligated downstream of CCR2 (E3)
  fold binding against other factors tested: ~4 fold
